Holding throughout (assay): SPR, relative to GpH7-A5/GpH7-B3/GpL16-k0 =100
Assay [1] addresses T1, FcγRIIa(R) (human, UniProt P12318 34-217).
T1 construct: extracellular domain; also called 2aR
T1 sequence: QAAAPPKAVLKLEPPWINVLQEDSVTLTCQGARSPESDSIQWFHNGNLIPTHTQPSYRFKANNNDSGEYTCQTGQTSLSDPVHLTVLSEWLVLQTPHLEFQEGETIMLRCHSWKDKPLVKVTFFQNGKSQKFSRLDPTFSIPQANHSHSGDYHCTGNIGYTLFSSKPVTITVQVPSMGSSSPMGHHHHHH

Assay [2] deals with T2, FcγRIa (human, UniProt P12314 16-292).
T2 construct: extracellular domain; also called 1a

In assay [3] the target is T3, FcγRIIb (human, UniProt P31994 43-217).
T3 construct: extracellular domain; also called 2b
T3 sequence: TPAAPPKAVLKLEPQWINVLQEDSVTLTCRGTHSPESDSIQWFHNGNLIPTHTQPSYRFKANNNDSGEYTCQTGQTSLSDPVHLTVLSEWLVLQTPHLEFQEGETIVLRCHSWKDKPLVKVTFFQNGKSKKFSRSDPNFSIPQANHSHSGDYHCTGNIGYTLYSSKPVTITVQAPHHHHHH

Assay [4] deals with T4, FcγRIIa(H) (human, UniProt P12318 34-217).
T4 construct: extracellular domain; also called 2aH
T4 sequence: T1 sequence with R134H

Results on 24 molecules are retold here after patent US20260167699A1 (Chugai, published 2026).

Numbering of substitutions follows the chain as printed.

T2 sequence (P12314 other isoform, or with tags, fused parts or gaps): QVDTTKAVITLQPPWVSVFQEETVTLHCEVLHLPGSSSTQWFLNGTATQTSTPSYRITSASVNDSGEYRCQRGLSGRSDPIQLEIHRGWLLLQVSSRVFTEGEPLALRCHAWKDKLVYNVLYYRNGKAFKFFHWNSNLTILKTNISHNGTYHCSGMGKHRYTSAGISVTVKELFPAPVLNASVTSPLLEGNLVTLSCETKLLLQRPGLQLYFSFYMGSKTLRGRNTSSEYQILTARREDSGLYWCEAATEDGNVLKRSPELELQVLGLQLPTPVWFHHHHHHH

B1: GpH7-A5/GpH7-B3 variant Y296_04F/GpL16-k0 (antibody, human IgG1, kappa)
heavy 1: not shown
heavy 2: not shown
light: DIVMTQSPLSLPVTPGEPASISCQASESLVHSNRNTYLHWYLQKPGQSPQLLIYKVSNRFSGVPDRFSGSGSGTDFTLKISRVEAEDVGVYYCSQNTHVPPTFGQGTKVEIERTVAAPSVFIFPPSDEQLKSGTASVVCLLNNFYPREAKVQWKVDNALQSGNSQESVTEQDSKDSTYSLSSTLTLSKADYEKHKVYACEVTHQGLSSPVTKSFNRGEC
notes: He Ab: heterodimerized IgG1, one H chain mutated
Consider B1, for which, in assay [1], the “He/Con 2aR” value was 105%. In addition, the “He/Con 1a” value in assay [2] came out at 101%. For the same molecule, in assay [3], the “He/Con 2b” value stood at 101%. Moreover, in assay [4], the “He/Con 2aH” value is 97.8%.

B2: GpH7-A5/GpH7-B3 variant Y300_04F/GpL16-k0 (antibody, human IgG1, kappa)
heavy 1: not shown
heavy 2: not shown
light: B1 light
notes: as for B1
As for B2, the “He/Con 2aR” value in assay [1] is 103%. The “He/Con 1a” value in assay [2] stood at 102%. For the same molecule, the “He/Con 2b” value in assay [3] was 106%. In addition, in assay [4], the “He/Con 2aH” value was found to be 103%.

B3: GpH7-A5/GpH7-B3 variant Y300_01G/GpL16-k0 (antibody, human IgG1, kappa)
heavy 1: not shown
heavy 2: not shown
light: B1 light
notes: as for B1
B3: the “He/Con 2aR” value in assay [1] is 66.6%. Besides, in assay [2], the “He/Con 1a” value came out at 110%. Moreover, the “He/Con 2b” value in assay [3] was 63.2%. In addition, the “He/Con 2aH” value in assay [4] amounted to 82.6%.

B4: GpH7-A5/GpH7-B3 variant Y296_20W/GpL16-k0 (antibody, human IgG1, kappa)
heavy 1: not shown
heavy 2: not shown
light: B1 light
notes: as for B1
B4: the “He/Con 2aR” value in assay [1] was found to be 105%. Further, the “He/Con 1a” value in assay [2] came to 107%. For the same molecule, in assay [3], the “He/Con 2b” value worked out at 105%. Also, the “He/Con 2aH” value in assay [4] was found to be 95.4%.

B5: GpH7-A5/GpH7-B3 variant Y296_11K/GpL16-k0 (antibody, human IgG1, kappa)
heavy 1: not shown
heavy 2: not shown
light: B1 light
notes: as for B1
With B5, the “He/Con 2aR” value in assay [1] was determined as 90.3%. Besides, the “He/Con 1a” value in assay [2] amounted to 102%. The “He/Con 2b” value in assay [3] turned out to be 73.8%. In assay [4], the “He/Con 2aH” value stood at 83.7%.

B6: GpH7-A5/GpH7-B3 variant Y296_16H/GpL16-k0 (antibody, human IgG1, kappa)
heavy 1: not shown
heavy 2: not shown
light: B1 light
notes: as for B1
As for B6, the “He/Con 2aR” value in assay [1] was 100%. For the same molecule, in assay [2], the “He/Con 1a” value was 103%. Also, in assay [3], the “He/Con 2b” value worked out at 93.5%. Moreover, the “He/Con 2aH” value in assay [4] came out at 101%.

B7: GpH7-A5/GpH7-B3 variant Y300_11K/GpL16-k0 (antibody, human IgG1, kappa)
heavy 1: not shown
heavy 2: not shown
light: B1 light
notes: as for B1
For the molecule B7, the “He/Con 2aR” value in assay [1] amounted to 73.1%. Further, the “He/Con 1a” value in assay [2] was determined as 101%. For the same molecule, the “He/Con 2b” value in assay [3] amounted to 67.4%. Moreover, the “He/Con 2aH” value in assay [4] stood at 74.2%.

B8: GpH7-A5/GpH7-B3 variant Y300_09D/GpL16-k0 (antibody, human IgG1, kappa)
heavy 1: not shown
heavy 2: not shown
light: B1 light
notes: as for B1
For B8, in assay [1], the “He/Con 2aR” value came out at 105%. Also, the “He/Con 1a” value in assay [2] was determined as 106%. Further, the “He/Con 2b” value in assay [3] amounted to 122%. In assay [4], the “He/Con 2aH” value was found to be 101%.

B9: GpH7-A5/GpH7-B3 variant Y300_03V/GpL16-k0 (antibody, human IgG1, kappa)
heavy 1: not shown
heavy 2: not shown
light: B1 light
notes: as for B1
As for B9, the “He/Con 2aR” value in assay [1] was found to be 96.8%. Further, the “He/Con 1a” value in assay [2] was determined as 110%. Moreover, in assay [3], the “He/Con 2b” value came to 96.5%. Also, the “He/Con 2aH” value in assay [4] turned out to be 109%.

B10: GpH7-A5/GpH7-B3 variant Y296_07I/GpL16-k0 (antibody, human IgG1, kappa)
heavy 1: not shown
heavy 2: not shown
light: B1 light
notes: as for B1
In the case of B10, the “He/Con 2aR” value in assay [1] stood at 96.7%. Besides, the “He/Con 1a” value in assay [2] stood at 101%. Further, the “He/Con 2b” value in assay [3] stood at 85.5%. Besides, the “He/Con 2aH” value in assay [4] worked out at 92.7%.

B11: GpH7-A5/GpH7-B3 variant Y296_09D/GpL16-k0 (antibody, human IgG1, kappa)
heavy 1: not shown
heavy 2: not shown
light: B1 light
notes: as for B1
On to B11, for which, in assay [1], the “He/Con 2aR” value worked out at 101%. Also, the “He/Con 1a” value in assay [2] came out at 103%. The “He/Con 2b” value in assay [3] came out at 100%. For the same molecule, in assay [4], the “He/Con 2aH” value was found to be 102%.

B12: GpH7-A5/GpH7-B3 variant Y300_08L/GpL16-k0 (antibody, human IgG1, kappa)
heavy 1: not shown
heavy 2: not shown
light: B1 light
notes: as for B1
Take B12: the “He/Con 2aR” value in assay [1] is 96.9%. The “He/Con 1a” value in assay [2] is 107%. Further, the “He/Con 2b” value in assay [3] came out at 96.1%. In addition, the “He/Con 2aH” value in assay [4] was found to be 120%.

B13: GpH7-A5/GpH7-B3 variant Y300_07I/GpL16-k0 (antibody, human IgG1, kappa)
heavy 1: not shown
heavy 2: not shown
light: B1 light
notes: as for B1
B13: the “He/Con 2aR” value in assay [1] stood at 90.9%. Also, the “He/Con 1a” value in assay [2] was 102%. The “He/Con 2b” value in assay [3] worked out at 97.4%. The “He/Con 2aH” value in assay [4] stood at 120%.

B14: GpH7-A5/GpH7-B3 variant Y300_06M/GpL16-k0 (antibody, human IgG1, kappa)
heavy 1: not shown
heavy 2: not shown
light: B1 light
notes: as for B1
On to B14, for which the “He/Con 2aR” value in assay [1] was found to be 105%. Further, in assay [2], the “He/Con 1a” value is 106%. In assay [3], the “He/Con 2b” value is 110%. In addition, the “He/Con 2aH” value in assay [4] came out at 116%.

B15: GpH7-A5/GpH7-B3 variant Y296_06M/GpL16-k0 (antibody, human IgG1, kappa)
heavy 1: not shown
heavy 2: not shown
light: B1 light
notes: as for B1
For B15, the “He/Con 2aR” value in assay [1] came out at 96.8%. Also, the “He/Con 1a” value in assay [2] worked out at 101%. Moreover, the “He/Con 2b” value in assay [3] came out at 89%. Moreover, the “He/Con 2aH” value in assay [4] is 94.2%.

B16: GpH7-A5/GpH7-B3 variant Y300_02A/GpL16-k0 (antibody, human IgG1, kappa)
heavy 1: not shown
heavy 2: not shown
light: B1 light
notes: as for B1
B16: in assay [1], the “He/Con 2aR” value was 92.9%. The “He/Con 1a” value in assay [2] was found to be 106%. Also, in assay [3], the “He/Con 2b” value amounted to 90.5%. In addition, the “He/Con 2aH” value in assay [4] stood at 104%.

B17: GpH7-A5/GpH7-B3 variant Y296_19Q/GpL16-k0 (antibody, human IgG1, kappa)
heavy 1: not shown
heavy 2: not shown
light: B1 light
notes: as for B1
Turning to B17, the “He/Con 2aR” value in assay [1] came out at 97.9%. Further, the “He/Con 1a” value in assay [2] was 108%. Moreover, the “He/Con 2b” value in assay [3] was 90.5%. Besides, the “He/Con 2aH” value in assay [4] came to 94.3%.

B18: GpH7-A5/GpH7-B3 variant Y296_18N/GpL16-k0 (antibody, human IgG1, kappa)
heavy 1: not shown
heavy 2: not shown
light: B1 light
notes: as for B1
Turning to B18, the “He/Con 2aR” value in assay [1] was determined as 99.6%. Also, in assay [2], the “He/Con 1a” value amounted to 102%. In assay [3], the “He/Con 2b” value amounted to 92.8%. Also, the “He/Con 2aH” value in assay [4] stood at 101%.

B19: GpH7-A5/GpH7-B3 variant Y300_10E/GpL16-k0 (antibody, human IgG1, kappa)
heavy 1: not shown
heavy 2: not shown
light: B1 light
notes: as for B1
In the case of B19, the “He/Con 2aR” value in assay [1] was 127%. For the same molecule, in assay [2], the “He/Con 1a” value is 108%. Also, the “He/Con 2b” value in assay [3] was determined as 175%. Further, the “He/Con 2aH” value in assay [4] was 108%.

B20: GpH7-A5/GpH7-B3 variant Y296_08L/GpL16-k0 (antibody, human IgG1, kappa)
heavy 1: not shown
heavy 2: not shown
light: B1 light
notes: as for B1
Turning to B20, in assay [1], the “He/Con 2aR” value worked out at 93.7%. The “He/Con 1a” value in assay [2] was 101%. The “He/Con 2b” value in assay [3] was 83.5%. The “He/Con 2aH” value in assay [4] came to 86.9%.

B21: GpH7-A5/GpH7-B3 variant Y296_12R/GpL16-k0 (antibody, human IgG1, kappa)
heavy 1: not shown
heavy 2: not shown
light: B1 light
notes: as for B1
Turning to B21, the “He/Con 2aR” value in assay [1] was 95.3%. In addition, the “He/Con 1a” value in assay [2] worked out at 103%. In addition, the “He/Con 2b” value in assay [3] turned out to be 80.5%. In addition, the “He/Con 2aH” value in assay [4] was 89.1%.

B22: GpH7-A5/GpH7-B3 variant Y296_10E/GpL16-k0 (antibody, human IgG1, kappa)
heavy 1: not shown
heavy 2: not shown
light: B1 light
notes: as for B1
With B22, the “He/Con 2aR” value in assay [1] stood at 98.2%. Also, the “He/Con 1a” value in assay [2] came out at 102%. Also, the “He/Con 2b” value in assay [3] is 99.4%. In assay [4], the “He/Con 2aH” value was 94%.

B23: GpH7-A5/GpH7-B3 variant Y296_14T/GpL16-k0 (antibody, human IgG1, kappa)
heavy 1: not shown
heavy 2: not shown
light: B1 light
notes: as for B1
Turning to B23, in assay [1], the “He/Con 2aR” value was found to be 98.6%. For the same molecule, in assay [2], the “He/Con 1a” value turned out to be 102%. In addition, the “He/Con 2b” value in assay [3] amounted to 89.4%. Also, in assay [4], the “He/Con 2aH” value stood at 97.2%.

B24: GpH7-A5/GpH7-B3 variant Y296_13S/GpL16-k0 (antibody, human IgG1, kappa)
heavy 1: not shown
heavy 2: not shown
light: B1 light
notes: as for B1
For the molecule B24, in assay [1], the “He/Con 2aR” value turned out to be 97.5%. Moreover, the “He/Con 1a” value in assay [2] is 102%. Further, in assay [3], the “He/Con 2b” value came out at 87.5%. The “He/Con 2aH” value in assay [4] came out at 96.1%.
